Data reported in US20220403048A1 (CANCER RESEARCH TECHNOLOGY, published 2022).
Numbering of substitutions follows the chain as printed. Blank lines part the entries; values can stand above or below the binder they belong to.

Legend:
[1] = molecular target: T1, recombinant human trimeric ARG2 enzyme (construct not given) (human, UniProt P78540 23-354); test: cell-based or functional assay
T1 sequence (looked up): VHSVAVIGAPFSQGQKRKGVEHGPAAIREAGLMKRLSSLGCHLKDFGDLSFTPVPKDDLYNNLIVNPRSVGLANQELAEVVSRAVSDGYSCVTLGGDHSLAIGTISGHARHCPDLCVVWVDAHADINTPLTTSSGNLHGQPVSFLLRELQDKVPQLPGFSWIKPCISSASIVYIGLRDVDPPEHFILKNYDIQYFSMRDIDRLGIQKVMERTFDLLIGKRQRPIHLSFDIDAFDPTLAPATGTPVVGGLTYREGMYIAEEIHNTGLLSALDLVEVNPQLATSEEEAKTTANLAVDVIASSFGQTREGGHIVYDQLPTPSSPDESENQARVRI

[2] = molecular target: T2, biotinylated recombinant human trimeric ARG2 enzyme (Avi-huARG2-His10) (human, UniProt P78540 23-354, biotinylated); test: HTRF epitope competition, scFv titrated, competitor C0020187 IgG, on biotinylated human trimeric ARG2
T2 construct: also called avi-Arg2-His10; bio-ARG2
T2 chain: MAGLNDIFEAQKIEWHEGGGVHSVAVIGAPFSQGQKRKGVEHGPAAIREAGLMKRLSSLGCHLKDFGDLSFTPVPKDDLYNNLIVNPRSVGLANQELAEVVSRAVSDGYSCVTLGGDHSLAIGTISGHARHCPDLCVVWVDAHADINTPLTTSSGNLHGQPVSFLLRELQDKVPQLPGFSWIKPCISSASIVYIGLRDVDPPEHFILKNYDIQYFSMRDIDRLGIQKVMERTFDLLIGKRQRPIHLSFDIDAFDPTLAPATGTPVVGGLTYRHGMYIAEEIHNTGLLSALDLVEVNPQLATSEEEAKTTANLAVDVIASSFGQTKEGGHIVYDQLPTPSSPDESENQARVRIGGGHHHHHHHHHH

[3] = molecular target: T2, biotinylated recombinant human trimeric …; test: BLI (OctetRED), biotinylated ARG2 on streptavidin, Fab as analyte
Protocol: An Octet Kinetics Buffer (PBS containing 0.01% BSA and 0.002% Tween20) is typically used as the diluent buffer for the analyte samples and as the flow buffer during the dissociation phase. The experimental data is recorded over time as shift in interference pattern (nm) over time, which is directly proportional to the optical thickness at the biosensor tip, which in turn is an approximate measure of the mass of analyte bound. The proprietary Octet Data Analysis software package can then be used to process data and fit binding models to the data sets. Returned association (kₐ, M⁻¹ s⁻¹) and dissociation (kd, s⁻¹) rate constants allow calculation of dissociation (KD, M) affinity constants.
Typically, an analyte titration range of 1.8 to 120 nM was used.

B4: C0021022 scFv (scFv, V domains shown)
VH: EVQLLESGGGLVQPGGSLRLSCAASGFTFSSYAMSWVRQAPGKGPEWVSAISGFSPYYADSVKGRFTISRDNSKNTLYLQMNSLRAEDTAVYYCARLRADLGLYMDLWGRGTLVTVSS
VL: QSVLTQPPSVSAAPGQKVTISCSGSSSNIGNHYVSWYQQLPGTAPKLLIYDNSERPSGIPDRFSGSKSGTSATLGITGLQTGDEADYYCGTWDSSLSALVFGGGTKLTVL
notes: scFv
Trimeric human ARG2 EIA IC50 [1]: 106 nM
IC50 [2]: 65.9 nM

B6: C0021128 scFv (scFv, V domains shown)
VH: EVQLLESGGGLVQPGGSLRLSCAASGFTFQYEVAAWVRQAPGKGLEWVSAISGPIPKGYYADSVKGRFTISRDNSKNTLYLQMNSLRAEDTAVYYCARLRADLGLYMDLWGRGTLVTVSS
VL: B4 VL with S53A, E54I, R55E, P56S, E84G, S95N
notes: scFv
Trimeric human ARG2 EIA IC50 [1]: 169 nM
IC50 [2]: 44.5 nM

B9: C0021129 scFv (scFv, V domains shown)
VH: B4 VH with Q13R, P45L, Y57F
VL: B4 VL with G75D, S94E, S95T, L96A, S97A, A98E
notes: scFv
Trimeric human ARG2 EIA IC50 [1]: 313 nM
IC50 [2]: 45 nM

B10: C0021096 scFv (scFv, V domains shown)
VH: B4 VH with P45L, F54Y, P56G
VL: B4 VL with D51N, N52T, S53E, E54R, P56M
notes: scFv
Trimeric human ARG2 EIA IC50 [1]: 57.8 nM
IC50 [2]: 35.2 nM

B11: C0021021 scFv (scFv, V domains shown)
VH: EVQLLESGGGLVQPGGSLRLSCAASGFTFSSYAMSWVRQAPGKGLEWVSSILFSPGSTYYADSVKGRFTISRDNSKNTLYLQMNSLRAEDTAVYYCARLRADLGLYMDLWGRGTLVTVSS
VL: B4 VL
notes: scFv
Trimeric human ARG2 EIA IC50 [1]: 151 nM
IC50 [2]: 58.7 nM

B13: C0021061 scFv (scFv, V domains shown)
VH: B11 VH with S50A, I51K, L52P, F53T, S54D, P55A
VL: B4 VL with D51N, N52T, S53V, E54Y, R55P, P56K
notes: scFv
Trimeric human ARG2 EIA IC50 [1]: 110 nM
IC50 [2]: 101 nM

B16: C0021097 Fab (Fab, V domains shown)
VH: B11 VH with S50A, L52S, F53Y, S54H
VL: B4 VL with D51N, N52T, S53F, E54A
notes: Human Fab
Kd [3]: 4.95 nM
koff [3]: 0.00146 s⁻¹
kon [3]: 295000 M⁻¹ s⁻¹

B19: C0021101 Fab (Fab, V domains shown)
VH: B4 VH
VL: B4 VL with D51N, S53R, E54S, R55P, P56T
notes: Human Fab
Kd [3]: 3.41 nM
koff [3]: 0.00107 s⁻¹
kon [3]: 314000 M⁻¹ s⁻¹

B23: C0021131 scFv (scFv, V domains shown)
VH: B11 VH with S30P, S31Y, Y32D, A33Y, S35G, S50A, L52S, F53G, P55G
VL: B4 VL with S94E, S95L, L96T, A98N
notes: scFv
Trimeric human ARG2 EIA IC50 [1]: 251 nM
IC50 [2]: 45.7 nM

B24: C0021118 Fab (Fab, V domains shown)
VH: B11 VH with S50A, I51S, F53T, S54N
VL: B4 VL with G90A, W92Y, S94T, S95N
notes: Human Fab
Kd [3]: 8.23 nM
koff [3]: 0.00114 s⁻¹
kon [3]: 139000 M⁻¹ s⁻¹

B28: C0021032 Fab (Fab, V domains shown)
VH: B11 VH with S50A, I51Y, L52G, F53Y, S54G, P55I
VL: B4 VL
notes: Human Fab
Kd [3]: 5.33 nM
koff [3]: 0.00228 s⁻¹
kon [3]: 427000 M⁻¹ s⁻¹

B29: C0021124 scFv (scFv, V domains shown)
VH: B11 VH with S50A, L52S, F53Y, S54H, M83I
VL: B4 VL with P7L, S95D, L96R, S97V, A98N, V100E
notes: scFv
Trimeric human ARG2 EIA IC50 [1]: 375 nM
IC50 [2]: 50.5 nM

Now from value to binder:

Trimeric human ARG2 EIA IC50 [1]: 226 nM
IC50 [2]: 122 nM
B1: C0021017 scFv (scFv, V domains shown)
VH: B6 VH with Q30Y, Y31P, V33Y, A34E, A35L, P54S, I55G, P56G, K57S, G58T
VL: B4 VL
notes: scFv

Trimeric human ARG2 EIA IC50 [1]: 281 nM
IC50 [2]: 43.3 nM
B2: C0021133 scFv (scFv, V domains shown)
VH: B6 VH with Q30R, E32D, V33H, A34H, A35V, P54S, I55G, P56G, K57S, G58T
VL: B4 VL with I20V, N52T, S53T, E54V, R55L, P56S, S94E, S95L, L96T, A98N
notes: scFv

Trimeric human ARG2 EIA IC50 [1]: 109 nM
IC50 [2]: 51.1 nM
B3: C0021141 scFv (scFv, V domains shown)
VH: EVQLLESGGGLVQPGGSLRLSCAASGFTFYPDPQGWVRQAPGKGLEWVSAYGYGIGSTYYADSVKGRFTISRDNSKNTLYLQMNSLRAEDTAVYYCARLRADLGLYMDLWGRGTLVTVSS
VL: B4 VL with K17E, G30D
notes: scFv

Kd [3]: 3.33 nM
koff [3]: 0.00108 s⁻¹
kon [3]: 326000 M⁻¹ s⁻¹
B5: C0021141 Fab (Fab, V domains shown)
VH: B3 VH
VL: B4 VL with K17E, G30D
notes: Human Fab

Trimeric human ARG2 EIA IC50 [1]: 99.1 nM
IC50 [2]: 27.5 nM
B7: C0021097 scFv (scFv, V domains shown)
VH: B11 VH with S50A, L52S, F53Y, S54H
VL: B4 VL with D51N, N52T, S53F, E54A
notes: scFv

Kd [3]: 4.24 nM
koff [3]: 0.002 s⁻¹
kon [3]: 473000 M⁻¹ s⁻¹
B8: C0021021 Fab (Fab, V domains shown)
VH: B11 VH
VL: B4 VL
notes: Human Fab

Trimeric human ARG2 EIA IC50 [1]: 159 nM
IC50 [2]: 130 nM
B12: C0021092 scFv (scFv, V domains shown)
VH: B11 VH with S31R, S50A, I51H, L52T, F53H
VL: B4 VL with D51N, N52S, S53V, E54A
notes: scFv

Kd [3]: 3.48 nM
koff [3]: 0.00154 s⁻¹
kon [3]: 441000 M⁻¹ s⁻¹
B14: C0021096 Fab (Fab, V domains shown)
VH: B4 VH with P45L, F54Y, P56G
VL: B4 VL with D51N, N52T, S53E, E54R, P56M
notes: Human Fab

Trimeric human ARG2 EIA IC50 [1]: 64.8 nM
IC50 [2]: 40.8 nM
B15: C0021101 scFv (scFv, V domains shown)
VH: B4 VH
VL: B4 VL with D51N, S53R, E54S, R55P, P56T
notes: scFv

Trimeric human ARG2 EIA IC50 [1]: 220 nM
IC50 [2]: 52 nM
B17: C0021135 scFv (scFv, V domains shown)
VH: B6 VH with T28A, Q30R, V33Y, A34I, A35Q, P54S, I55G, P56G, K57S, G58T
VL: B4 VL with P45H
notes: scFv

Trimeric human ARG2 EIA IC50 [1]: 134 nM
IC50 [2]: 48.3 nM
B18: C0021098 scFv (scFv, V domains shown)
VH: B11 VH with I51S, L52T, F53Y, S54G, P55A
VL: B4 VL with D51N, N52S, S53D, E54A, R55P, P56M
notes: scFv

Trimeric human ARG2 EIA IC50 [1]: 211 nM
IC50 [2]: 67 nM
B20: C0021032 scFv (scFv, V domains shown)
VH: B11 VH with S50A, I51Y, L52G, F53Y, S54G, P55I
VL: B4 VL
notes: scFv

Trimeric human ARG2 EIA IC50 [1]: 71.5 nM
IC50 [2]: 133 nM
B21: C0021089 scFv (scFv, V domains shown)
VH: B6 VH with Q30P, V33Y, A34W, A35S, P54S, I55G, P56G, K57S, G58T, E89Q
VL: B4 VL with S94P, S95T, L96V, A98R
notes: scFv

Trimeric human ARG2 EIA IC50 [1]: 143 nM
IC50 [2]: 74.7 nM
B22: C0021065 scFv (scFv, V domains shown)
VH: B4 VH with K74R
VL: B4 VL with N52T, S53D, E54H, R55M, P56A
notes: scFv

Trimeric human ARG2 EIA IC50 [1]: 188 nM
IC50 [2]: 40.1 nM
B25: C0021139 scFv (scFv, V domains shown)
VH: B6 VH with E32D, V33Y, A34Q, A35V, P54S, I55G, P56G, K57S, G58T
VL: B4 VL with P56T, S94E, S95L, L96T, A98N
notes: scFv

Trimeric human ARG2 EIA IC50 [1]: 84.1 nM
IC50 [2]: 41.7 nM
B26: C0021118 scFv (scFv, V domains shown)
VH: B11 VH with S50A, I51S, F53T, S54N
VL: B4 VL with G90A, W92Y, S94T, S95N
notes: scFv

Kd [3]: 2.77 nM
koff [3]: 0.0011 s⁻¹
kon [3]: 399000 M⁻¹ s⁻¹
B27: C0021142 Fab (Fab, V domains shown)
VH: B11 VH with S50A, I51H, L52T, F53H
VL: B4 VL
notes: Human Fab
